Reference: patent publication US20250042961A1, “P53 PEPTIDOMIMETIC MACROCYCLES” (MERCK SHARP & DOHME LLC, priority 2021, published 2025)

What was measured:
[1] = biological target: Purified MDM2 (1-125) protein (human MDM2 1-125 sequence comprising a modified TEV cleavage site, pNIC-GST fusion) (human) (UniProt Q00987); assay: competitive fluorescence anisotropy (FP) against FAM-labeled 12/1 peptide on MDM2 (1-125); apparent Kd
[2] = biological target: MDM2 (in HCT116 cells) (human) (UniProt Q00987); assay: cell-based or functional assay

Purified MDM2 (1-125) protein (human MDM2 1-125 sequence comprising a modified TEV cleavage site, pNIC-GST fusion) (human), sequence (Q00987 1-125 limits assumed): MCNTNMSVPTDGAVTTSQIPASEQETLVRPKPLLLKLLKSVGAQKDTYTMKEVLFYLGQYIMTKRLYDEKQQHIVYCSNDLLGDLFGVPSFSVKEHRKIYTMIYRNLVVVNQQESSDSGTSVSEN

| Substance | Kd [1] | p53 activity EC50 (µM) (0% FBS, 4 h) [2] | p53 activity EC50 (µM) (10% FBS, 16 h) [2] |
| --- | --- | --- | --- |
| Acetyl-^DPMI-δ-(6-10 olefin staple) (D-K9D-Q, D-R12D-S) (D-A)-(D-F)-(D-A)-(D-Ala)-(D-A)-(D-A) polypeptide tail)-NH2 | 30 nM | – | – |
| Acetyl-^DPMI-δ-(6-10 olefin staple) (D-K9D-Q, D-R12D-S)-NH2 (peptide) | 258 nM | – | – |
| Acetyl-^DPMI-δ-(6-10 olefin staple) (D-K9D-Q, D-R12D-S, 3x(D-A) polypeptide tail)-NH2 | 3.1 nM | – | – |
| Acetyl-^DPMI-δ-(6-10 olefin staple) (D-K9D-Q, D-R12D-S, 3x(D-Ala)-(D-Glu)-2x(D-Ala) polypeptide tail)-NH2 | 0.43 nM | – | – |
| ^DPMI-δ-(5-12 olefin staple)-NH2 (peptide) | 33.9 nM | 13.6 µM | 30.8 µM |
| ^DPMI-δ-(6-10 olefin staple)-NH2 (peptide) | 118 nM | – | – |
